In series [1] the target is T1, Hop1 K65A,N67Q (Saccharomyces cerevisiae, UniProt P20050 1-605, K65A;N67Q).
T1 sequence: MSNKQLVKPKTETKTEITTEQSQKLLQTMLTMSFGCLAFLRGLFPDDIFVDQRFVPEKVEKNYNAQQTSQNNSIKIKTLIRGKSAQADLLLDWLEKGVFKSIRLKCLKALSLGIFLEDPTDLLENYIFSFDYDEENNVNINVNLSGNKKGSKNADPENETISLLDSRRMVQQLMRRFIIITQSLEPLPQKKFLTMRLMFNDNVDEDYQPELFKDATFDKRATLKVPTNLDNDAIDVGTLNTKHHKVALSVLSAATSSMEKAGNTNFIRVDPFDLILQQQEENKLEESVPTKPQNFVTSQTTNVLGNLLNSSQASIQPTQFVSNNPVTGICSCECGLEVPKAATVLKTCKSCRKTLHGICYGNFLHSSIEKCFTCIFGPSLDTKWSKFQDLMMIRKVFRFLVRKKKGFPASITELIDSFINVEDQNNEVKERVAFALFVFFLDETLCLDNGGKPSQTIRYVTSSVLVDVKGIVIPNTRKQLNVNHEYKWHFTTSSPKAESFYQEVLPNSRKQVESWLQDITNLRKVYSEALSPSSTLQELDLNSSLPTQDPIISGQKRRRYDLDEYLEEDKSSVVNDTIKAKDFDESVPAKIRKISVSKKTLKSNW
In words: MST; 25 nM HJ; EMSA: 25 mM HEPES pH 7.5, 0.5 nM 32P-HJ, 37 C 15 min, 8% PAGE in TBE (25 mM Tris base pH 8.0, 25 mM boric acid, 0.5 mM EDTA) at 4 C; MST: 25 nM 6-FAM HJ, buffer not in material. The conditions noted are these: protein: recombinant; tags: His6 (pET28a); label: 5'-6FAM on HJ02; four-way junction of 4 strands. Background: A gel shift assay detects complexes by their altered migration in electrophoresis.

In series [2] the target is T1, Hop1 K65A,N67Q. In words: EMSA; 0.5 nM HJ; EMSA: 25 mM HEPES pH 7.5, 0.5 nM 32P-HJ, 37 C 15 min, 8% PAGE in TBE (25 mM Tris base pH 8.0, 25 mM boric acid, 0.5 mM EDTA) at 4 C; MST: 25 nM 6-FAM HJ, buffer not in material. The conditions noted are these: protein: recombinant; tags: His6 (pET28a); label: 5'-32P on HJ02; four-way junction of 4 strands.

B1: Holliday junction (HJ), 6-FAM (structured_DNA)
DNA 1: GACGCTGCCGAATTCTACCAGTGCCTTGCTAGGACATCTTTGCCCACCTGCCGGTTCACCC
DNA 2: TGGGTGAACCTGCAGGTGGGCAAAGATGTCCTAGCAATGTAATCGTCAAAGCTTTATGCCGTT
DNA 3: CAACGGCATAAAGCTTGACGATTACATTGCTAGGACATGCTGTCTAGAGGATCCGACTATCGA
DNA 4: ATCGATAGTCGGATCCTCTAGACAGCATGTCCTAGCAAGGCACTGGTAGAATTCGGCAGCGT
As to B1, in the series with Hop1 K65A,N67Q [1], the equilibrium dissociation constant (Kd) (as a rule, the free concentration of one partner at which half of the binding sites on the other are occupied at equilibrium, for simple one-to-one binding) was found to be 495 nM.

B2: Holliday junction (HJ), 32P (structured_DNA)
DNA 1: B1 DNA 1
DNA 2: B1 DNA 2
DNA 3: B1 DNA 3
DNA 4: B1 DNA 4
B2: the binding signal with Hop1 K65A,N67Q [2] is ~1.7 fold lower affinity than WT.

The record behind these values is article PMC11797056, “The ATPase activity of yeast chromosome axis protein Hop1 affects the frequency of meiotic crossovers” (Nucleic Acids Research, 2024).
